Laboratory results as given in article PMC10247153.
One block for each substance: values may come before it.

What was measured:
[1] = tested on: KDM5C ARID K101A/R107A (Homo sapiens); assay: EMSA; settings: EMSA: 50 mM HEPES pH 7.5, 50 mM KCl, 1 mM BME, 0.01% Tween-20, 0.01% BSA, 5% sucrose, 1 h on ice; 100 nM nucleosome or 147 bp DNA, 500 nM 20 bp DNA; gel at 4 C.; scale: fold reduction
[2] = tested on: KDM5C1-839 D87G (Homo sapiens); assay: EMSA; settings: apparent Kd, EMSA: 50 mM HEPES pH 7.5, 50 mM KCl, 1 mM BME, 0.01% Tween-20, 0.01% BSA, 5% sucrose, 1 h on ice, 100 nM nucleosome or 147 bp DNA, gel at 4 C.
[3] = tested on: KDM5C1-839 (Homo sapiens); assay: EMSA; settings: EMSA: 50 mM HEPES pH 7.5, 50 mM KCl, 1 mM BME, 0.01% Tween-20, 0.01% BSA, 5% sucrose, 1 h on ice, 100 nM nucleosome or 147 bp DNA, 500 nM 20 bp DNA, gel at 4 C.; for Kd: apparent Kd
[4] = tested on: KDM5C1-839 A388P (Homo sapiens); assay: EMSA; settings: apparent Kd, EMSA: 50 mM HEPES pH 7.5, 50 mM KCl, 1 mM BME, 0.01% Tween-20, 0.01% BSA, 5% sucrose, 1 h on ice, 100 nM nucleosome or 147 bp DNA, gel at 4 C.
[5] = tested on: KDM5C1-839 ΔAP (Homo sapiens); assay: EMSA; settings: apparent Kd, EMSA: 50 mM HEPES pH 7.5, 50 mM KCl, 1 mM BME, 0.01% Tween-20, 0.01% BSA, 5% sucrose, 1 h on ice, 100 nM nucleosome or 147 bp DNA, 500 nM 20 bp DNA, gel at 4 C.
[6] = tested on: KDM5C1-839 D343A (Homo sapiens); assay: EMSA; settings: apparent Kd, EMSA: 50 mM HEPES pH 7.5, 50 mM KCl, 1 mM BME, 0.01% Tween-20, 0.01% BSA, 5% sucrose, 1 h on ice, 100 nM nucleosome or 147 bp DNA, gel at 4 C.
[7] = biological target: unmodified 187 bp mononucleosome (human) (UniProt P68431); assay: native gel or EMSA; 100 nM nucleosome with various concentrations of KDM5C; 50 mM HEPES pH 7.5, 50 mM KCl, 1 mM BME, 0.01% Tween-20, 0.01% BSA, 5% sucrose; 1 hr on ice; native 7.5% PAGE at 4 °C; apparent dissociation constants from a cooperative binding fit
[8] = biological target: unmodified 147 bp mononucleosome (human) (UniProt P68431); assay: as above
[9] = biological target: H3K4me3 147 bp mononucleosome (human) (UniProt P68431); assay: as above
[10] = biological target: H3K4me3 187 bp mononucleosome (human) (UniProt P68431); assay: as above
[11] = biological target: H3K4me3 147 bp mononucleosome (human) (UniProt P68431)
[12] = biological target: H3K4me3 187 bp mononucleosome (human) (UniProt P68431)
[13] = tested on: KDM5C1-839 ΔAP A388P (Homo sapiens); assay: EMSA; settings: apparent Kd; lower limit, saturation unattainable; EMSA: 50 mM HEPES pH 7.5, 50 mM KCl, 1 mM BME, 0.01% Tween-20, 0.01% BSA, 5% sucrose, 1 h on ice; 100 nM nucleosome or 147 bp DNA, 500 nM 20 bp DNA; gel at 4 C.
[14] = histone H3K4me3, 500 nM 20 bp DNA
[15] = lower limit, saturation unattainable

Chain of KDM5C^1–839 (P41229 1-839): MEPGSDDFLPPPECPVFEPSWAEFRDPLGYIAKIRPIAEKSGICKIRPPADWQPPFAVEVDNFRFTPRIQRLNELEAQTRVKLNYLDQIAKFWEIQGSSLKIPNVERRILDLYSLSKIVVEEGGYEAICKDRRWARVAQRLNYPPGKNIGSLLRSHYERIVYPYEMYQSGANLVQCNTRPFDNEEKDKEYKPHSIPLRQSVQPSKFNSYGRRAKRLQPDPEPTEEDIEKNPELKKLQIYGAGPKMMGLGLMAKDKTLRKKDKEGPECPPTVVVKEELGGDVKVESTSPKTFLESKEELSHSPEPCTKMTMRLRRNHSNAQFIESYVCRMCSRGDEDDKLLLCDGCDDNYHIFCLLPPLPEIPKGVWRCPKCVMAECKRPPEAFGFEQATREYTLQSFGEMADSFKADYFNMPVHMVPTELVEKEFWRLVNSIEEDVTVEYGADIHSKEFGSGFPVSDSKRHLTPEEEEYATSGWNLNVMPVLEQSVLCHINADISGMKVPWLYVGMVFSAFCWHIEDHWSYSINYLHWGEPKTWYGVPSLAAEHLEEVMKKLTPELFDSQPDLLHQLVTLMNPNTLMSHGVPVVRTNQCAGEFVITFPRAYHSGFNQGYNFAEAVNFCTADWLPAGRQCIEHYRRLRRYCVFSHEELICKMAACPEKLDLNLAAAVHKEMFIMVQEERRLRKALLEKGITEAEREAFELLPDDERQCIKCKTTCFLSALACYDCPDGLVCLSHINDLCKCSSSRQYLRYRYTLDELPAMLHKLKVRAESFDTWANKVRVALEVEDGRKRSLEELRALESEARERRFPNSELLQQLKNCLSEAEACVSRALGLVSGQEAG

Substance: 147 bp 601 DNA
binding signal [1]: 22

Substance: H3K4me3 147 bp core nucleosome
Kd [2, 14]: 2.3 µM
Kd ([3]; Hill n 2.3, histone H3K4me3): 6.9 µM
Kd [4, 14]: 3.7 µM
Kd ([5]; Hill n 2.4, histone H3K4me3): 20 µM
Kd [6, 14]: 8.9 µM

Substance: H3K4me3 187 bp nucleosome
Kd [2, 14]: 1.3 µM
Kd ([3]; histone H3K4me3): 7.3 µM
Kd [4, 14]: 1.8 µM
Kd [6, 14]: 4.7 µM

fold gain in affinity against the core (147 bp) nucleosome [7]: 3 fold
Kd [8]: 13 µM
Kd [9]: 7 µM
Kd [10]: 7 µM
Substance: KDM5C^1–839 (from UniProt P41229-1 1-839) (domain or fragment)

Kd [7]: 1 µM
fold gain in affinity against the H3K4me3 core nucleosome [10]: 2 fold
Substance: KDM5C^1–839 A388P (from UniProt P41229-1 1-839) (domain or fragment)

catalytic efficiency kmax/Km^app of demethylation of the H3K4me3 core nucleosome (TR-FRET, single turnover), increase against wild type KDM5C^1–839 [11]: 3 fold
catalytic efficiency kmax/Km^app of demethylation of the 187 bp H3K4me3 nucleosome (TR-FRET, single turnover), against wild type KDM5C^1–839 [12]: 2 fold
Kd [7]: 1 µM
fold gain in affinity against the H3K4me3 core nucleosome [10]: 2 fold
Substance: KDM5C^1–839 D87G (from UniProt P41229-1 1-839) (domain or fragment)

Kd [7]: 3.2 µM
Kd [8]: 8.4 µM
Kd [9]: 8.9 µM
Kd [10]: 4.7 µM
Substance: KDM5C^1–839 D343A (from UniProt P41229-1 1-839) (domain or fragment)

fold reduction in affinity against KDM5C^1–839 [8]: 3 fold
fold reduction in affinity against KDM5C^1–839 [9]: 3 fold
Substance: KDM5C^(1–839 ΔAP) (from UniProt P41229-1 1-82; P41229-1 379-839) (domain or fragment)

Substance: unmodified 147 bp core nucleosome
Kd [3, 15]: > 12.5 µM
Kd [13]: > 45 µM
Kd [5, 15]: > 35 µM
Kd ([6]; 500 nM 20 bp …): 8.4 µM

Substance: unmodified 187 bp nucleosome
Kd ([2]; 500 nM 20 bp …): 1 µM
binding signal ([3]; scale: fold gain in affinity vs 147 bp nucleosome): 3
Kd ([4]; 500 nM 20 bp …): 1 µM
Kd ([6]; 500 nM 20 bp …): 3.2 µM
